# T1: human ALPI (intestinal alkaline phosphatase) expressed on the surface of CHO cells (human, UniProt P09923 20-503)
# T1 sequence (looked up): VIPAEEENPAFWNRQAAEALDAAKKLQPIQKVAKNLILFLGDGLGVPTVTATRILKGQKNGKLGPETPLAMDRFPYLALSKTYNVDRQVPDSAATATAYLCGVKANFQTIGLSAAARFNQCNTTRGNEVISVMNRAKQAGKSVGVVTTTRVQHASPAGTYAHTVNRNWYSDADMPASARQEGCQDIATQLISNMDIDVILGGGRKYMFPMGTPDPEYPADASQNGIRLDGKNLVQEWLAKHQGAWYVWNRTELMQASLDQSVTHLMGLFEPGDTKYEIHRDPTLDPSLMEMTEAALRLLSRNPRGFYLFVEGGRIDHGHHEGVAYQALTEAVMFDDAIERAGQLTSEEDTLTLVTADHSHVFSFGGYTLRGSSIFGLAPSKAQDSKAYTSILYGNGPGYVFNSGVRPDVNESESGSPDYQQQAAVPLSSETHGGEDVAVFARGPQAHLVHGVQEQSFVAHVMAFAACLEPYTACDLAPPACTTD
# T2: human ALPL (tissue non-specific alkaline phosphatase) expressed on the surface of CHO cells (human, UniProt P05186 18-501)
# T2 sequence (looked up): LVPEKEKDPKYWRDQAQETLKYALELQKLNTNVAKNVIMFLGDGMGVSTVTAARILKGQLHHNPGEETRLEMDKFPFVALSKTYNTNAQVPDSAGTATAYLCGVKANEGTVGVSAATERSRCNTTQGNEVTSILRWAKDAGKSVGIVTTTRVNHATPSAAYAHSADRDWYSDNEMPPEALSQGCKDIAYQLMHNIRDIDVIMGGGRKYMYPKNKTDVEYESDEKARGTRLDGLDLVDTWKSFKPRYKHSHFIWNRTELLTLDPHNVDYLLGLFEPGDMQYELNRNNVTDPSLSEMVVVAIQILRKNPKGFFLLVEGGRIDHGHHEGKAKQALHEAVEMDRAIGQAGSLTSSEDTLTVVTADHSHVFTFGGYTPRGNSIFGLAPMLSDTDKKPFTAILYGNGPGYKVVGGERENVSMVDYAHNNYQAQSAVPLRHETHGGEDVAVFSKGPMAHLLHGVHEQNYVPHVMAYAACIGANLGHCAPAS
# Key:
# [1] = molecular target: T3, human ALPPL2 (alkaline phosphatase, germ cell type) expressed on the surface of CHO cells (human, UniProt P10696 20-503); experiment: cell-based or functional assay
# [2] = molecular target: T1, human ALPI (intestinal alkaline …); experiment: cell-based or functional assay
# [3] = molecular target: T2, human ALPL (tissue non-specific …); experiment: cell-based or functional assay
# [4] = molecular target: T1, human ALPI (intestinal alkaline …); experiment: flow cytometry, CHO-ALPI cells
# [5] = molecular target: T2, human ALPL (tissue non-specific …); experiment: flow cytometry, CHO-ALPL cells
# [6] = molecular target: T4, human ALPP (alkaline phosphatase, placental type) expressed on the surface of CHO cells (human, UniProt P05187 23-506); experiment: flow cytometry on CHO-ALPP cells, apparent KD (KDapp)
# T4 construct: also called CHO-ALPP; hALPP
# Procedure: (§1) Biparatopic VHH-hFc drug conjugates were assessed for human ALPP, ALPPL2, ALPI and ALPL cell-surface binding by flow cytometry. Binders were screened on CHO cells stably expressing human ALPP, ALPPL2, ALPI or ALPL.
# (§2) Cell surface binding of test agents to hALPP isoforms was characterized in four CHO-ALPP isoform transfectant cell lines (CHO-ALPP, CHO-ALPPL2, CHO-ALPI and CHO-ALPL) and the resulting KDapp values determined. Adherent cells were detached from tissue culture flasks by incubating with 0.1% EDTA/PBS solution at 37° C. for […] or until cells detached easily. Cells were re-suspended in ice-cold PBS/2% FCS in 15 ml tubes and centrifuged at 1700 rpm for 5 mins at 4° C. Supernatant was removed and the cell pellet re-suspended in PBS/2% FCS. […] Cells were incubated with 100 μl of test agents at a range of concentrations, plus controls for 1 hr on ice. The sample plate was centrifuged at 1700 rpm for 5 mins at 4° C. The supernatant was removed, and a wash performed by re-suspending the cell pellets in 0.25 mL of ice-cold PBS/2% FCS using a multichannel pipette. Samples were again centrifuged at 1700 rpm for 5 min at 4° C. Supernatant was removed and two further washes performed as described. After the final wash and centrifugation step, excess liquid was removed by blotting the plate on tissue paper. Binding of VHH-hFc agents was determined by adding 100 μl of Fitc-anti-human Ab (ThermoFisher) and incubating for 30 mins on ice in the dark. Wash steps were performed as described previously. All cell pellets were finally re-suspended in 0.28 ml of ice-cold PBS/2% FCS and left on ice in the dark prior to analysis on a Merck-Millipore Guava EasyCyte HT or Thermo Fisher Attune N×T flow cytometer.
# [7] = molecular target: T3, human ALPPL2 (alkaline phosphatase, …); experiment: flow cytometry on CHO-ALPPL2 cells, apparent KD (KDapp)
# Procedure: as §1, §2
# T4 sequence (P05187 23-506 limits assumed): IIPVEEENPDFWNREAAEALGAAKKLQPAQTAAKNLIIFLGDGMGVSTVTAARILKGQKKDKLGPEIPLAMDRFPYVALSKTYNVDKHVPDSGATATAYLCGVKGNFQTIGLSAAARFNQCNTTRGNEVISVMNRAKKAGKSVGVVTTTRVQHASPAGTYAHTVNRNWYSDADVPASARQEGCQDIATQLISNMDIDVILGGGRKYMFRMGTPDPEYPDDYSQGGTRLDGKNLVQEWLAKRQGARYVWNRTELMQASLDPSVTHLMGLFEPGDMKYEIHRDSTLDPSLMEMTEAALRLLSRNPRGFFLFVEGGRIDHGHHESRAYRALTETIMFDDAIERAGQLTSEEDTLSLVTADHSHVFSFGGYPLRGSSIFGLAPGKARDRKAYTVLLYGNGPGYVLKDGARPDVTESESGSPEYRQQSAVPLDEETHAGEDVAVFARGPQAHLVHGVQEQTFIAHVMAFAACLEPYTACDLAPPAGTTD
# T3 sequence (P10696 20-503): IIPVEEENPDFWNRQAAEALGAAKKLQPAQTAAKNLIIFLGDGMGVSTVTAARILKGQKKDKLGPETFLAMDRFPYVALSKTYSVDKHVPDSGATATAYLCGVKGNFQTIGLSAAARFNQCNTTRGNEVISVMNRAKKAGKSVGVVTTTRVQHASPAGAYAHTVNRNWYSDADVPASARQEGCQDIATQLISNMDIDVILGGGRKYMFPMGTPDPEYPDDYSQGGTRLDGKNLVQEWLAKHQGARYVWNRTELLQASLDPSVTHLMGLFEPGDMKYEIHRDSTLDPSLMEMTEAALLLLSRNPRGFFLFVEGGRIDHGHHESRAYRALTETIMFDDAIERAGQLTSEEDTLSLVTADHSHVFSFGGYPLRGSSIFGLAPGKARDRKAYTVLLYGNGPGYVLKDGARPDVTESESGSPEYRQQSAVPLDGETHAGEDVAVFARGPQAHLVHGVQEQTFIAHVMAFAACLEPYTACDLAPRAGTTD
Binder,"IC50 at 96 h, cell-killing of CHO-ALPPL2 cells [1] [nM]","IC50 at 96 h, cell-killing of CHO-ALPI cells (estimated from data extrapolation) [2] [nM]","IC50 at 96 h, cell-killing of CHO-ALPL cells [3] [nM]",binding result [4],binding result [5],Kd [6] [nM],Kd [7] [nM],"IC50 at 96 h, cell-killing of CHO-ALPI cells [2] [nM]"
"D10 E10-hFc (S239/442C T366Y/Y407T), [G4S]1 linker, MC-vc-PAB-MMAE conjugate, #678 (Fc fusion, DAR 4, MC-vc-PAB-MMAE on Cys of S239C and S442C (EU numbering), Biparatopic knob-into-hole VHH-hFc heterodimer, DAR 4; also called D10-E10-hFc-vcPAB-MMAE; D10-E10 hFc-vc-MMAE) chain 1: QVQLVESGGGLVQPGGSLRLSCAASGSIFSVNTMGWYRQAPGKQRDLVAVATSGGTIHYADSVKGRFTISRDNAKNTVYLQMNSLKPEDTAVYYCNLVVPYGMIAGDHDYWGQGTKVTVSSGGGGSEPKSSDKTHTCPPCPAPELLGGPCVFLFPPKPKDTLMISRTPEVTCVVVDVSHEDPEVKFNWYVDGVEVHNAKTKPREEQYNSTYRVVSVLTVLHQDWLNGKEYKCKVSNKALPAPIEKTISKAKGQPREPQVYTLPPSRDELTKNQVSLYCLVKGFYPSDIAVEWESNGQPENNYKTTPPVLDSDGSFFLYSKLTVDKSRWQQGNVFSCSVMHEALHNHYTQKSLCLSPGK chain 2: QVQLVESGGGLVQAGGSLRLSCAVSGRALSDYNIGWFRQAPGKEREFVARKTWDGSSTRYDDSVKGRFTVSIEDAKNTAYLQMSSLKTEDTAVYYCAAGRYSRARGWEYDYWGQGTQVTVSSGGGGSEPKSSDKTHTCPPCPAPELLGGPCVFLFPPKPKDTLMISRTPEVTCVVVDVSHEDPEVKFNWYVDGVEVHNAKTKPREEQYNSTYRVVSVLTVLHQDWLNGKEYKCKVSNKALPAPIEKTISKAKGQPREPQVYTLPPSRDELTKNQVSLTCLVKGFYPSDIAVEWESNGQPENNYKTTPPVLDSDGSFFLTSKLTVDKSRWQQGNVFSCSVMHEALHNHYTQKSLCLSPGK",12.8,~972,> 1000,no binding (tested: 350 nM (highest concentration)),no binding (tested: 350 nM (highest concentration)),6.9,5,–
"D10 F05-hFc (S239/442C T366Y/Y407T), [G4S]1 linker, MC-vc-PAB-MMAE conjugate, #679 (Fc fusion, DAR 4, MC-vc-PAB-MMAE on Cys of S239C and S442C (EU numbering), Biparatopic knob-into-hole VHH-hFc heterodimer, DAR 4; also called D10-F05-hFc-vcPAB-MMAE; D10-F05 hFc-vc-MMAE) chain 1: QVQLVESGGGLVQPGGSLRLSCAASGSIFSVNTMGWYRQAPGKQRDLVAVATSGGTIHYADSVKGRFTISRDNAKNTVYLQMNSLKPEDTAVYYCNLVVPYGMIAGDHDYWGQGTKVTVSSGGGGSEPKSSDKTHTCPPCPAPELLGGPCVFLFPPKPKDTLMISRTPEVTCVVVDVSHEDPEVKFNWYVDGVEVHNAKTKPREEQYNSTYRVVSVLTVLHQDWLNGKEYKCKVSNKALPAPIEKTISKAKGQPREPQVYTLPPSRDELTKNQVSLYCLVKGFYPSDIAVEWESNGQPENNYKTTPPVLDSDGSFFLYSKLTVDKSRWQQGNVFSCSVMHEALHNHYTQKSLCLSPGK chain 2: QVQLVESGGGLVQAGGSLRLSCAASGRAFGDYNIGWFRQAPGKEREFVARRTWDGSSTRYDDSVKGRFTVSIDNAKNTAYLQMNSLKTEDTAVYYCAAGRYSRVRGWEYDYWGQGTQVTVSSGGGGSEPKSSDKTHTCPPCPAPELLGGPCVFLFPPKPKDTLMISRTPEVTCVVVDVSHEDPEVKFNWYVDGVEVHNAKTKPREEQYNSTYRVVSVLTVLHQDWLNGKEYKCKVSNKALPAPIEKTISKAKGQPREPQVYTLPPSRDELTKNQVSLTCLVKGFYPSDIAVEWESNGQPENNYKTTPPVLDSDGSFFLTSKLTVDKSRWQQGNVFSCSVMHEALHNHYTQKSLCLSPGK",16.1,–,> 1000,no binding (tested: 350 nM (highest concentration)),no binding (tested: 350 nM (highest concentration)),6.6,5.2,> 1000
"D10 E10-hFc (S239/442C T366Y/Y407T), [G4S]3 linker, MC-vc-PAB-MMAE conjugate, #636 (Fc fusion, DAR 4, MC-vc-PAB-MMAE on Cys of S239C and S442C (EU numbering), Biparatopic knob-into-hole VHH-hFc heterodimer, DAR 4; also called D10-E10 hFc-vcPAB-MMAE; D10-E10 hFc-vc-MMAE) chain 1: QVQLVESGGGLVQPGGSLRLSCAASGSIFSVNTMGWYRQAPGKQRDLVAVATSGGTIHYADSVKGRFTISRDNAKNTVYLQMNSLKPEDTAVYYCNLVVPYGMIAGDHDYWGQGTKVTVSSGGGGSGGGGSGGGGSEPKSSDKTHTCPPCPAPELLGGPCVFLFPPKPKDTLMISRTPEVTCVVVDVSHEDPEVKFNWYVDGVEVHNAKTKPREEQYNSTYRVVSVLTVLHQDWLNGKEYKCKVSNKALPAPIEKTISKAKGQPREPQVYTLPPSRDELTKNQVSLYCLVKGFYPSDIAVEWESNGQPENNYKTTPPVLDSDGSFFLYSKLTVDKSRWQQGNVFSCSVMHEALHNHYTQKSLCLSPGK chain 2: QVQLVESGGGLVQAGGSLRLSCAVSGRALSDYNIGWFRQAPGKEREFVARKTWDGSSTRYDDSVKGRFTVSIEDAKNTAYLQMSSLKTEDTAVYYCAAGRYSRARGWEYDYWGQGTQVTVSSGGGGSGGGGSGGGGSEPKSSDKTHTCPPCPAPELLGGPCVFLFPPKPKDTLMISRTPEVTCVVVDVSHEDPEVKFNWYVDGVEVHNAKTKPREEQYNSTYRVVSVLTVLHQDWLNGKEYKCKVSNKALPAPIEKTISKAKGQPREPQVYTLPPSRDELTKNQVSLTCLVKGFYPSDIAVEWESNGQPENNYKTTPPVLDSDGSFFLTSKLTVDKSRWQQGNVFSCSVMHEALHNHYTQKSLCLSPGK",12.5,–,> 1000,no binding (tested: 350 nM (highest concentration)),no binding (tested: 350 nM (highest concentration)),6.8,4.7,> 1000
"D10 F05-hFc (S239/442C T366Y/Y407T), [G4S]3 linker, MC-vc-PAB-MMAE conjugate, #637 (Fc fusion, DAR 4, MC-vc-PAB-MMAE on Cys of S239C and S442C (EU numbering), Biparatopic knob-into-hole VHH-hFc heterodimer, DAR 4; also called D10-F05 hFc-vcPAB-MMAE; D10-F05 hFc-vc-MMAE) chain 1: QVQLVESGGGLVQPGGSLRLSCAASGSIFSVNTMGWYRQAPGKQRDLVAVATSGGTIHYADSVKGRFTISRDNAKNTVYLQMNSLKPEDTAVYYCNLVVPYGMIAGDHDYWGQGTKVTVSSGGGGSGGGGSGGGGSEPKSSDKTHTCPPCPAPELLGGPCVFLFPPKPKDTLMISRTPEVTCVVVDVSHEDPEVKFNWYVDGVEVHNAKTKPREEQYNSTYRVVSVLTVLHQDWLNGKEYKCKVSNKALPAPIEKTISKAKGQPREPQVYTLPPSRDELTKNQVSLYCLVKGFYPSDIAVEWESNGQPENNYKTTPPVLDSDGSFFLYSKLTVDKSRWQQGNVFSCSVMHEALHNHYTQKSLCLSPGK chain 2: QVQLVESGGGLVQAGGSLRLSCAASGRAFGDYNIGWFRQAPGKEREFVARRTWDGSSTRYDDSVKGRFTVSIDNAKNTAYLQMNSLKTEDTAVYYCAAGRYSRVRGWEYDYWGQGTQVTVSSGGGGSGGGGSGGGGSEPKSSDKTHTCPPCPAPELLGGPCVFLFPPKPKDTLMISRTPEVTCVVVDVSHEDPEVKFNWYVDGVEVHNAKTKPREEQYNSTYRVVSVLTVLHQDWLNGKEYKCKVSNKALPAPIEKTISKAKGQPREPQVYTLPPSRDELTKNQVSLTCLVKGFYPSDIAVEWESNGQPENNYKTTPPVLDSDGSFFLTSKLTVDKSRWQQGNVFSCSVMHEALHNHYTQKSLCLSPGK",13,–,> 1000,no binding (tested: 350 nM (highest concentration)),no binding (tested: 350 nM (highest concentration)),7.4,3.5,> 1000

# Source: patent publication US20260216242A1 (ALMAC DISCOVERY, published 2026)
